In the data set the target is His6-RpoS (sigma S) (Salmonella enterica serovar Typhimurium 14028s) (UniProt D0ZVL4). The data set can be described thus: EMSA. To be noted: LightShift chemiluminescent EMSA kit, 20 uL: 1 ng biotin-DNA, 2 uL binding buffer, 1 ug poly(dI.dC), 1 uL 50% glycerol, 1 uL 1 M KCl (about 50 mM added).

Binding data for two sequences are collected here from article doi:10.1101/2023.10.26.564249.

Chain of His6-RpoS (sigma S) (Salmonella enterica serovar Typhimurium 14028s) (D0ZVL4 whole entry): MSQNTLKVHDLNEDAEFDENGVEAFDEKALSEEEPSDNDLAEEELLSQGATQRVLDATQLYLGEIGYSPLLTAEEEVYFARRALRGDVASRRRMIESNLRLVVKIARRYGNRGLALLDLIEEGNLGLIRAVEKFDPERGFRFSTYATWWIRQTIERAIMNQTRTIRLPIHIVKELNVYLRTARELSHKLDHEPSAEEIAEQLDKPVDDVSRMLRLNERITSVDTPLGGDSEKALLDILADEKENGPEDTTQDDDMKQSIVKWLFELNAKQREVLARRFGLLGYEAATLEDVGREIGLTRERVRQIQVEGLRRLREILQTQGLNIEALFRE

With “ACTCGTATGTTTATCATGCAACCTATAAATAAATGTTATATTCAATAACTAATATTACATCTCAAATTCTCTCAAGTATGTCATAACGCTGCAGCAAATAAAAGTCAGTCAGC (double strand) [waaZ promoter]”, the binding result is “binds”.

Turning to “ACTTCCCCGAGCTTAAAAATGACCCAAACGGGTGTACCGATCTTAGTCTGCTGGCTGGCGCTGTAGCAAAGTTTAATGTCATCGGTAACCGGCTGGATTTAGCGATCCCTCAAATCGCG (double strand) [sthC promoter]”, the binding result was “binds”.
